Molecular target: T1, human CaSR wild type (hCaSR WT) (Homo sapiens, UniProt P41180, E1011Q)
T1 construct: mGlu5 signal peptide (N, cleaved yes); expressed in transfected cells
T1 sequence (P41180 20-1078 E1011Q): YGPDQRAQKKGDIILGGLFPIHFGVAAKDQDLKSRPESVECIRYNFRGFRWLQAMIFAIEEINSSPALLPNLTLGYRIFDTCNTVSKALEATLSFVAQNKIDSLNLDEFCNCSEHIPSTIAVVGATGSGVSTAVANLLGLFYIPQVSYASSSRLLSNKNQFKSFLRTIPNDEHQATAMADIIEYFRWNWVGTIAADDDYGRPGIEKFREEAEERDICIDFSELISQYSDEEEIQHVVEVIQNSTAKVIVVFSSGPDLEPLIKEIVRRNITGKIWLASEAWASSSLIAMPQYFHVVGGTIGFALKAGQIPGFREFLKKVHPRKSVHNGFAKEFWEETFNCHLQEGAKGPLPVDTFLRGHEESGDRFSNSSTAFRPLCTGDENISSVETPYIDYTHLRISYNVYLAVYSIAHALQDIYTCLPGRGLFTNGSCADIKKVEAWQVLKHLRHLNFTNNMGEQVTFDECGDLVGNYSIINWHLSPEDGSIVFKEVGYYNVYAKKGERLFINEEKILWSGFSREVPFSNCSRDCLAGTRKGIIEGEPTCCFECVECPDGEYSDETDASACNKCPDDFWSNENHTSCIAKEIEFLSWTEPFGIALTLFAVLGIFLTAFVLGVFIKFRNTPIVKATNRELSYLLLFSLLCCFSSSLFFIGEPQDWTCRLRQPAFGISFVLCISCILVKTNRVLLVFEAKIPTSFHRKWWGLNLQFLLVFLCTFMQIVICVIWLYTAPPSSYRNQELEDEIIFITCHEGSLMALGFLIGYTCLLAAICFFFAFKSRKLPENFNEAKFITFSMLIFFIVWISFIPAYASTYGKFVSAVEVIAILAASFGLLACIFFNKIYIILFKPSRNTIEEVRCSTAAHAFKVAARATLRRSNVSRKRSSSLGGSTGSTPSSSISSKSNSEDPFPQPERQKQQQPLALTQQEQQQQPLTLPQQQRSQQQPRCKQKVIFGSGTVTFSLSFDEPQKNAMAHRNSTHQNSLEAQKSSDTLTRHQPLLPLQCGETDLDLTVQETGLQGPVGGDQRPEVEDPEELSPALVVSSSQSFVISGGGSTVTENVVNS
Assay: IP1 accumulation assay, Flp-In HEK293 HA-hCaSR WT cells
Format: cell-based
Details: for Effect on Ca2+ concentration-response curve (IP1): increasing concentrations of PAM; for PAM activity in IP1 accumulation screen: fixed nanobody concentration 5 μM, 30 min pre-incubation
Protocol: Nanobodies were successfully purified by immobilized metal ion affinity chromatography (IMAC) and size exclusion chromatography (SEC) prior to pharmacological characterization (FIG. 1). Each nanobody was initially screened for Gq/11 activity in the Cisbio IP1 accumulation assay as this is the primary signaling pathway of CaSR (Chavez-Abiega et al., 2020). Whole HEK293 HA-hCaSR WT cells were pre-incubated for 30 minutes at 37° C. with a fixed nanobody concentration (5 μM) prior to stimulation with the endogenous ligand Ca^2+. The well characterized positive allosteric modulator (PAM) chemical NPS R-568 and negative allosteric modulator (NAM) chemical NPS 2143 were added as reference compounds. […] No nanobodies with agonist or NAM activity were observed when all nanobodies screened in the absence or in the presence of EC80 Ca^2+, respectively (FIGS. 4A and 4B). […] Except for CaSR Nb5, the same nanobodies acted as PAMs when ERK1/2 phosphorylation was measured in the presence of EC20 Ca^2+ (FIG. 2B). Again, none of the nanobodies elicited an agonist or NAM response (FIGS. 5B and 5C).
All cell lines utilized in this study were grown at 37° C. and 5% CO2. The HEK293A (RRID: CVCL_6910) and stable Flp-In HEK293 cells were cultured in Dulbecco's Modified Eagle Medium (DMEM, #31966021) supplemented with 10% dialyzed Fetal Bovine Serum (dFBS) and 1% 10,000 units/mL penicillin and 10,000 μg/mL streptomycin mixture (pen/strep). The stable Flp-In CHO cells were cultured in F-12K medium (#21127022) supplemented with 10% dFBS and 1% pen/strep. Additionally, the stable Flp-In HEK293 and Flp-In CHO cell lines were cultured in the presence of respectively 200 and 500 μg/mL hygromycin B. For pharmacological characterization, Flp-In HEK293 HA-hCaSR WT cells were seeded in poly-D-lysine-coated clear 96 well tissue culture plates (Corning, Corning, N.Y., USA) at a density of 50,000 cells/well 18 h prior to assay. Experiments with HA-rCaSR WT and HA-hCaSR S170A required transient transfection of HEK293A cells 24 h prior to assay. DNA construct and Lipofectamine 2000 were diluted in Opti-MEM and mixed together after 5 minutes incubation at room temperature. For HA-rCaSR WT, 30 ng/well rCaSR DNA diluted in 25 μL/well Opti-MEM was mixed with 0.25 μL/well Lipofectamine 2000 in 25 μL/well Opti-MEM. For HA-hCaSR S170A, 40 ng/well […] DNA diluted in 25 μL/well Opti-MEM was mixed with 0.25 μL/well Lipofectamine 2000 in 25 μL/well Opti-MEM. The DNA:Lipofectamine 2000 mixtures were incubated 20 minutes at room temperature after which 50 μL/well was added to a poly-D-lysine-coated clear 96 well tissue culture plate. Next, 100 μL/well of a 400,000 cells/mL HEK293A cell solution prepared in culture media was added and the plate was placed at 37° C. and 5% CO2 (final cell density 40,000 cells/well).
Inositol monophosphate (IP1) accumulation was measured using the commercially available HTRF® IP1 accumulation kit (Cisbio Bioassays, Codolet, France) and an EnVision multimode plate reader (PerkinElmer, Waltham, Mass., USA). Unless stated otherwise, the cells were washed once with 100 μL/well assay buffer and stimulated for 30 minutes at 37° C. with 50 μL/well ligand(s) diluted in assay buffer supplemented with 20 mM LiCl. Following stimulation, the cells were washed once with 100 μL/well and lysed for 30 minutes at room temperature with 30 μL/well lysis buffer provided with the kit. The lysed cells were diluted 1:2 with assay buffer after which 10 μL/well was pipetted to a white 384-well OptiPlate (PerkinElmer, Waltham, Mass., USA). Next, 10 μL of a detection solution consisting of 2.5% IP1-d2 conjugate and 2.5% anti-IP1 antibody diluted in assay buffer was added to each well. Fluorophore emissions were measured after the plate was stored in the dark for 1 h. The 615/665 nm emission ratios measured upon excitation at 340 nm were converted to IP1 concentrations with an IP1 standard curve according to the manufacturer's instructions.

[1] = IP1 accumulation at EC20 Ca2+, three independent experiments in triplicate

In the case of COc1cccc([C@@H](C)NCCCc2ccccc2Cl)c1 [NPS R-568, reference compound], the “Need for pre-incubation for PAM activity (IP1)” value (5 μM, with or without 30 minutes pre-incubation at 37° C., EC20 Ca2+) is reported as “did not require pre-incubation”, the “IP1 accumulation in the absence of added Ca2+” value (1:1 ratio, total 10 μM, alone = combined with inactive Nb7) is reported as “did not induce IP1 accumulation” and the “Max. response (fold over basal ± S.E.M.), human ortholog” value (IP1 accumulation at EC20 Ca2+) is reported as 3.89 ± 0.07 fold over basal. It also gave an EC50 (IP1 accumulation at EC20 Ca2+, three independent experiments in triplicate, read-out: Potency (pEC50 ± S.E.M.), human ortholog (converted)) of 0.12 µM.

In the case of C[C@@H](NCCCc1cccc(C(F)(F)F)c1)c1cccc2ccccc12 [cinacalcet, reference compound], the “Effect on Ca2+ concentration-response curve (IP1)” value is reported as “leftward shift”.

B1: Nb4: llama-derived CaSR-specific nanobody acting as PAM, SEQ ID NO:5 (protein)
VHH: QVQLVESGGGLVQAGGSLRLSCAASGRTFSTYRMGWFRQGLGKEREFVAAITANGVRTFYTDSVKGRFTISRDNAKNTLYLQMNSLQPDDTAVYLCAARRKGIFTVQQAQDITDWDYWGQGTQVTVSS
modifications: CaSR Nb4
With B1 the “Max. response (fold over basal ± S.E.M.), human ortholog” value (IP1 accumulation at EC20 Ca2+) was 3.74 ± 0.08 fold over basal, the “Potency (pEC50 ± S.E.M.), human ortholog” value [1] was 7.08 ± 0.13 and the “PAM activity in IP1 accumulation screen” value (EC20 Ca2+) was “potentiated IP1 accumulation”. For the same molecule, the “Effect on Ca2+ concentration-response curve (IP1)” value was “leftward shift”.

B2: Nb2: llama-derived CaSR-specific nanobody acting as PAM, SEQ ID NO:9 (protein)
VHH: QVQLVESGGGLVQAGSSLRLSCAASGRTFSNYRMAWFRQAPGKEREFVAVISRGGGGADYADSVKGRFTISRDNVKNTVSLQMNSLKPEDTAVYFCAARISGFSYYTSVDRYDYWGQGTQVTVSS
modifications: CaSR Nb2
For B2, the “Max. response (fold over basal ± S.E.M.), human ortholog” value (IP1 accumulation at EC20 Ca2+) was 3.52 ± 0.21 fold over basal, the “Potency (pEC50 ± S.E.M.), human ortholog” value [1] was 6.71 ± 0.08 and the “PAM activity in IP1 accumulation screen” value (EC20 Ca2+) was “potentiated IP1 accumulation”.

B3: Nb5: llama-derived CaSR-specific nanobody, weakest PAM, SEQ ID NO:8 (protein)
VHH: QVQLVESGGRLVQDGGSLRLSCAASGLTFSDYSMGWFRQVPGKEREFVAVIRRSNDSTYYADFVKGRFTISRDNAKNTVYLQMNSLQPEDTAVYSCAADRGGVGLTSAQTYAYWGQGTQVTVSS
modifications: CaSR Nb5
In the case of B3, the “Max. response (fold over basal ± S.E.M.), human ortholog” value (IP1 accumulation at EC20 Ca2+) is reported as 1.88 ± 0.05 fold over basal and the “PAM activity in IP1 accumulation screen” value (EC20 Ca2+) is reported as “potentiated IP1 accumulation”.

B4: Nb10: llama-derived CaSR-specific nanobody acting as PAM, SEQ ID NO:3 (protein)
VHH: QVQLVESGGGLVQPGDSLRVSCAASGGSFRSYAMAWFRQAPGKEREFVAAMSGTYGSTIYSDSMKGRFTISRDNAKKMVYLRMNSLRPEDTAVYYCAGYYSGAYYGTPKTDYTEYDSWGQGTQVTVSS
modifications: CaSR Nb10
In the case of B4, the “Max. response (fold over basal ± S.E.M.), human ortholog” value (IP1 accumulation at EC20 Ca2+) is reported as 3.36 ± 0.09 fold over basal, the “Potency (pEC50 ± S.E.M.), human ortholog” value [1] is reported as 6.33 ± 0.03 and the “PAM activity in IP1 accumulation screen” value (EC20 Ca2+) is reported as “potentiated IP1 accumulation”.

B5: Nb11: llama-derived CaSR-specific nanobody acting as PAM, SEQ ID NO:6 (protein)
VHH: QVQLVESGGGLVQAGGSLRLSCAASGRTFSTYRMGWFRQGPGKEREFVAAITATGVKTYYTDSVKGRFTISRDNAKNTVYLQMNSVQPEDTAVYSCAARIKAIFTAQQAATITDYDYWGQGTQVTVSS
modifications: CaSR Nb11
B5 was tested, and the “Max. response (fold over basal ± S.E.M.), human ortholog” value (IP1 accumulation at EC20 Ca2+) was 3.50 ± 0.17 fold over basal, the “Potency (pEC50 ± S.E.M.), human ortholog” value [1] was 6.28 ± 0.07 and the “PAM activity in IP1 accumulation screen” value (EC20 Ca2+) was “potentiated IP1 accumulation”.

B6: Nb15: llama-derived CaSR-specific nanobody acting as PAM, SEQ ID NO:10 (protein)
VHH: QVQLVESGGGLVQAGGSLRLSCAASGRTFNNYHMAWFRQAPGKEREFAAAISRRAGTTYYADSVKGRFTISRDNAKNTVYLQMNSLKPEDTAVYYCAADPDTYGVSYLARKYDYWGQGTQVTVSS
modifications: CaSR Nb15
For B6, the “Max. response (fold over basal ± S.E.M.), human ortholog” value (IP1 accumulation at EC20 Ca2+) was 3.38 ± 0.36 fold over basal, the “Potency (pEC50 ± S.E.M.), human ortholog” value [1] was 6.59 ± 0.03 and the “PAM activity in IP1 accumulation screen” value (EC20 Ca2+) was “potentiated IP1 accumulation”.

B7: Nb36: llama-derived CaSR-specific nanobody acting as PAM, SEQ ID NO:7 (protein)
VHH: QVQLVESGGGLVQAGESLRLSCAASGRTFSSYRMGWFRQGPGKEREFVAAITATGVRTYYADSVKGRFTISRDNAKNTVYLQMNSLQPDDTAVYLCAARRKAIFSVQQALTITDYDDWGQGTQVTVSS
modifications: CaSR Nb36
For B7, the “Max. response (fold over basal ± S.E.M.), human ortholog” value (IP1 accumulation at EC20 Ca2+) was 4.78 ± 0.21 fold over basal, the “Potency (pEC50 ± S.E.M.), human ortholog” value [1] was 6.78 ± 0.17 and the “PAM activity in IP1 accumulation screen” value (EC20 Ca2+) was “potentiated IP1 accumulation”.

B8: Nb37: llama-derived CaSR-specific nanobody acting as PAM, SEQ ID NO:4 (protein)
VHH: QVQLVESGGGLVQPGDSLRVSCAASGGSFRSYAMAWFRRAPGKEREFVAAMSGTYGSTIYADSMKGRFTISRDNAKKMVYLRMNSLRAEDTAVYYCAGYYSGAYYGTPKTDYTEYDSWGQGTQVTVSS
modifications: CaSR Nb37
With B8 the “Max. response (fold over basal ± S.E.M.), human ortholog” value (IP1 accumulation at EC20 Ca2+) was 4.04 ± 0.32 fold over basal, the “Potency (pEC50 ± S.E.M.), human ortholog” value [1] was 6.22 ± 0.05 and the “PAM activity in IP1 accumulation screen” value (EC20 Ca2+) was “potentiated IP1 accumulation”.

— patent US20220411495A1, “POSITIVE ALLOSTERIC MODULATORS OF THE CALCIUM-SENSING RECEPTOR” (VIB VZW, priority 2019, published 2022)
